Biological target: the molecule itself
Experiment: nonreducing SDS-PAGE

B1: His6-SipA^1-242 (domain or fragment)
chain: MVTSVRTQPPVIMPGMQTEIKTQATNLAANLSAVRESATATLSGEIKGPQLEDFPALIKQASLDALFKCGKDAEALKEVFTNSNNVAGKKAIMEFAGLFRSALNATSDSPEAKTLLMKVGAEYTAQIIKDGLKEKSAFGPWLPETKKAEAKLENLEKQLLDIIKNNTGGELSKLSTNLVMQEVMPYIASCIEHNFGCTLDPLTRSNLTHLVDKAAAKAVEALDMCHQKLTQEQGTSVGREAR
- binding result: binds
